Assay results reported in US20250326839A1 (VIGIL NEUROSCIENCE, published 2025).

T1: human TREM2 (human, UniProt Q9NZC2 19-174, limits assumed)
T1 construct: also called triggering receptor expressed on myeloid cells 2
T1 sequence: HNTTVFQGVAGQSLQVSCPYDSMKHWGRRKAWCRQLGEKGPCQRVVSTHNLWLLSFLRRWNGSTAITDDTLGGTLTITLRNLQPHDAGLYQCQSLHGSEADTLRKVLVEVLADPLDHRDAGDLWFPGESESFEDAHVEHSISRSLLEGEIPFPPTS


Experiments:
human TREM2 [1] = molecular target: T1, human TREM2; experiment: 2nd screen, 10 nM
human TREM2 [2] = molecular target: T1, human TREM2; experiment: 2nd screen, 2 nM
human TREM2 [3] = molecular target: T1, human TREM2; experiment: 1st screen, 10 nM Ab

Row | Binder | Binding Signal (human TREM2 [1]) | Binding Signal (human TREM2 [2]) | Binding Signal (human TREM2 [3])
1 | V40 (antibody, V domains shown, also called 6E7 variant V40) VH: EVQLVQSGAEVKKPGESLKISCKGSGYSFGSYWIAWVRQMPGKGLEWMGIIYPGDSDVRYSPSFQGQVTISADKSISTAYLQWSSLKASDTAMYFCARQRTFYYDSSDYSDYWGQGTLVTVSS VL: DIQMTQSPSSVSASVGDRVTITCRASQGISSWLAWYQQKPGKAPKLLIYAASSLQLGVPSRFSGSGSGTDFTLTISSLQPEDFATYFCQQADRFPRTFGQGTKLEIK | 4.16 fold over 6E7 parental antibody | 3.41 fold over 6E7 parental antibody | 4.48 fold over 6E7 parental antibody
2 | V72 (antibody, V domains shown, also called 6E7 variant V72) VH: EVQLVQSGAEVKKPGESLKISCKGSGYSFTSYWIGWVRQMPGKGLEWMGIIYPGDSDTRYSPSFQGQVTISADKSISTAYLQWSSLKASDTAMYFCARGRTFYYDSSDYFDYWGQGTLVTVSS VL: DIQMTQSPSSVSASVGDRVTITCRASQGISSWLAWYQQKPGKAPKLLIYAASSLVNGVPSRFSGSGSGTDFTLTISSLQPEDFATYFCQQADSYPRTFGQGTKLEIK | 4.01 fold over 6E7 parental antibody | 2.5 fold over 6E7 parental antibody | 3.64 fold over 6E7 parental antibody
3 | V49 (antibody, V domains shown, also called 6E7 variant V49; LV-106/HV-106) VH: EVQLVQSGAEVKKPGESLKISCKGSGYSFNSYWIAWVRQMPGKGLEWMGTIYPGDSDTRLSPSFQGQVTISADKSISTAYLQWSSLKASDTAMYFCARSRTFYYDSSDYFDYWGQGTLVTVSS VL: DIQMTQSPSSVSASVGDRVTITCRASQGISSWLAWYQQKPGKAPKLLIYAASSRQNGVPSRFSGSGSGTDFTLTISSLQPEDFATYFCQQADSYPRTFGQGTKLEIK | 6.58 fold over 6E7 parental antibody | 5.02 fold over 6E7 parental antibody | 6.51 fold over 6E7 parental antibody
4 | V62 (antibody, V domains shown, also called 6E7 variant V62) VH: EVQLVQSGAEVKKPGESLKISCKGSGYSFGSYWIAWVRQMPGKGLEWMGIIYPGDSDTRYAPSFQGQVTISADKSISTAYLQWSSLKASDTAMYFCARQRTFYYDSSGYFDYWGQGTLVTVSS VL: DIQMTQSPSSVSASVGDRVTITCRASQGISSWLAWYQQKPGKAPKLLIYAASSLQRGVPSRFSGSGSGTDFTLTISSLQPEDFATYFCGQADSFPRTFGQGTKLEIK | 2.89 fold over 6E7 parental antibody | 1.87 fold over 6E7 parental antibody | 2.49 fold over 6E7 parental antibody
5 | V63 (antibody, V domains shown, also called 6E7 variant V63) VH: EVQLVQSGAEVKKPGESLKISCKGSGYSFRSYWIAWVRQMPGKGLEWMGIIYPGDSDTRYSPSFQGQVTISADKSISTAYLQWSSLKASDTAMYFCARSRTFYYDSSDYFDYWGQGTLVTVSS VL: DIQMTQSPSSVSASVGDRVTITCRASQGISSWLAWYQQKPGKAPKLLIYAASSLQRGVPSRFSGSGSGTDFTLTISSLQPEDFATYFCQQADRFPRTFGQGTKLEIK | 3.71 fold over 6E7 parental antibody | 4.91 fold over 6E7 parental antibody | 3.76 fold over 6E7 parental antibody
6 | V73 (antibody, V domains shown, also called 6E7 variant V73; LV-106/HV-109) VH: EVQLVQSGAEVKKPGESLKISCKGSGYSFGSYWIAWVRQMPGKGLEWMGIIYPGDSDTRYSPGFQGQVTISADKSISTAYLQWSSLKASDTAMYFCARGRTFYYDSSDYFDYWGQGTLVTVSS VL: DIQMTQSPSSVSASVGDRVTITCRASQGISSWLAWYQQKPGKAPKLLIYAASSRQNGVPSRFSGSGSGTDFTLTISSLQPEDFATYFCQQADSYPRTFGQGTKLEIK | 5.44 fold over 6E7 parental antibody | 4.17 fold over 6E7 parental antibody | 5.12 fold over 6E7 parental antibody
7 | V50 (antibody, V domains shown, also called 6E7 variant V50) VH: EVQLVQSGAEVKKPGESLKISCKGSGYSFGSYWIAWVRQMPGKGLEWMGVIYPGDSDTRYSPSFQGQVTISADKSISTAYLQWSSLKASDTAMYFCARQRTFYYDSSDYLDYWGQGTLVTVSS VL: DIQMTQSPSSVSASVGDRVTITCRASQGISSWLAWYQQKPGKAPKLLIYAASSRQNGVPSRFSGSGSGTDFTLTISSLQPEDFATYFCQQADSLPRTFGQGTKLEIK | 4.16 fold over 6E7 parental antibody | 3.39 fold over 6E7 parental antibody | 4.1 fold over 6E7 parental antibody
8 | V48 (antibody, V domains shown, also called 6E7 variant V48) VH: EVQLVQSGAEVKKPGESLKISCKGSGYSFGSYWIAWVRQMPGKGLEWMGIIYPGDSDVRYSPSFQGQVTISADKSISTAYLQWSSLKASDTAMYFCARMRTFYYDSSDYFDYWGQGTLVTVSS VL: DIQMTQSPSSVSASVGDRVTITCRASQGISSWLAWYQQKPGKAPKLLIYAASSLQTGVPSRFSGSGSGTDFTLTISSLQPEDFATYFCQQADSLPRTFGQGTKLEIK | 2.54 fold over 6E7 parental antibody | 2.3 fold over 6E7 parental antibody | 2.42 fold over 6E7 parental antibody
9 | V74 (antibody, V domains shown, also called 6E7 variant V74) VH: EVQLVQSGAEVKKPGESLKISCKGSGYSFASYWIAWVRQMPGKGLEWMGIIYPGDSDVRYSPSFQGQVTISADKSISTAYLQWSSLKASDTAMYFCARGRTFYYDSSDYFDYWGQGTLVTVSS VL: DIQMTQSPSSVSASVGDRVTITCRASQGISSWLAWYQQKPGKAPKLLIYAASSLQLGVPSRFSGSGSGTDFTLTISSLQPEDFATYFCQQADSFPRTFGQGTKLEIK | 4.01 fold over 6E7 parental antibody | 2.54 fold over 6E7 parental antibody | 3.94 fold over 6E7 parental antibody
10 | V53 (antibody, V domains shown, also called 6E7 variant V53) VH: EVQLVQSGAEVKKPGESLKISCKGSGYSFTSYWIAWVRQMPGKGLEWMGIIYPGDSDTRYSPHFQGQVTISADKSISTAYLQWSSLKASDTAMYFCARQRTFYYDSSDYFDYWGQGTLVTVSS VL: DIQMTQSPSSVSASVGDRVTITCRASQGISSWLAWYQQKPGKAPKLLIYAASSLQNGVPSRFSGSGSGTDFTLTISSLQPEDFATYFCQQADSFPRTFGQGTKLEIK | 1.17 fold over 6E7 parental antibody | 0.66 fold over 6E7 parental antibody | 1.25 fold over 6E7 parental antibody
11 | V41 (antibody, V domains shown, also called 6E7 variant V41) VH: EVQLVQSGAEVKKPGESLKISCKGSGYSFTSYWIAWVRQMPGKGLEWMGTIYPGDSDTRYSPSFQGQVTISADKSISTAYLQWSSLKASDTAMYFCARQRTFYYDSSDYFDYWGQGTLVTVSS VL: DIQMTQSPSSVSASVGDRVTITCRASQGISSWLAWYQQKPGKAPKLLIYAASSLQNGVPSRFSGSGSGTDFTLTISSLQPEDFATYFCQQADSFPRTFGQGTKLEIK | 1.72 fold over 6E7 parental antibody | 0.58 fold over 6E7 parental antibody | 1.74 fold over 6E7 parental antibody
12 | V75 (antibody, V domains shown, also called 6E7 variant V75) VH: EVQLVQSGAEVKKPGESLKISCKGSGYSFTSYWIAWVRQMPGKGLEWMGIIYPGDSDTRYSPSFQGQVTISADKSISTAYLQWSSLKASDTAMYFCARGRTFYYDSSDYFDYWGQGTLVTVSS VL: DIQMTQSPSSVSASVGDRVTITCRASQGISSWLAWYQQKPGKAPKLLIYAASSLQAGVPSRFSGSGSGTDFTLTISSLQPEDFATYFCQQADSYPRTFGQGTKLEIK | 4.52 fold over 6E7 parental antibody | 3.74 fold over 6E7 parental antibody | 4.64 fold over 6E7 parental antibody
13 | V60 (antibody, V domains shown, also called 6E7 variant V60; LV-108/HV-108) VH: EVQLVQSGAEVKKPGESLKISCKGSGYHFTSYWIAWVRQMPGKGLEWMGIIYPGDSDVRYSPSFQGQVTISADKSISTAYLQWSSLKASDTAMYFCARQRTFYYDSSDYSDYWGQGTLVTVSS VL: DIQMTQSPSSVSASVGDRVTITCRASQGISSWLAWYQQKPGKAPKLLIYAASSLQRGVPSRFSGSGSGTDFTLTISSLQPEDFATYFCGQADSFPRTFGQGTKLEIK | 3.63 fold over 6E7 parental antibody | 3.35 fold over 6E7 parental antibody | 3.26 fold over 6E7 parental antibody
14 | V51 (antibody, V domains shown, also called 6E7 variant V51) VH: EVQLVQSGAEVKKPGESLKISCKGSGYSFTSYWIAWVRQMPGKGLEWMGIIYPGDSDVRYSPSFQGQVTISADKSISTAYLQWSSLKASDTAMYFCARGRTFYYDSSDYFDNWGQGTLVTVSS VL: DIQMTQSPSSVSASVGDRVTITCRASQGISSWLAWYQQKPGKAPKLLIYAASSRQNGVPSRFSGSGSGTDFTLTISSLQPEDFATYFCQQADSFPRTFGQGTKLEIK | 3.18 fold over 6E7 parental antibody | 1.83 fold over 6E7 parental antibody | 2.81 fold over 6E7 parental antibody
15 | V52 (antibody, V domains shown, also called 6E7 variant V52; LV-107/HV-107) VH: EVQLVQSGAEVKKPGESLKISCKGSGYSFESYWIAWVRQMPGKGLEWMGIIYPGDSDTRYSPSFQGQVTISADKSISTAYLQWSSLKASDTAMYFCARGRTFYYDSSDYFDYWGQGTLVTVSS VL: DIQMTQSPSSVSASVGDRVTITCRASQGISSWLAWYQQKPGKAPKLLIYAASSLQRGVPSRFSGSGSGTDFTLTISSLQPEDFATYFCQQADRFPRTFGQGTKLEIK | 3.09 fold over 6E7 parental antibody | 1.78 fold over 6E7 parental antibody | 3 fold over 6E7 parental antibody
16 | V64 (antibody, V domains shown, also called 6E7 variant V64) VH: EVQLVQSGAEVKKPGESLKISCKGSGYSFQSYWIAWVRQMPGKGLEWMGIIYPGDSDTRYSPSFQGQVTISADKSISTAYLQWSSLKASDTAMYFCARGRTFYYDSSDYFDYWGQGTLVTVSS VL: DIQMTQSPSSVSASVGDRVTITCRASQGISSWLAWYQQKPGKAPKLLIYAASSLANGVPSRFSGSGSGTDFTLTISSLQPEDFATYFCQQADSYPRTFGQGTKLEIK | 5.48 fold over 6E7 parental antibody | 4.88 fold over 6E7 parental antibody | 5.41 fold over 6E7 parental antibody
17 | V61 (antibody, V domains shown, also called 6E7 variant V61) VH: EVQLVQSGAEVKKPGESLKISCKGSGYSFSSYWIAWVRQMPGKGLEWMGIIYPGDSDTRYNPSFQGQVTISADKSISTAYLQWSSLKASDTAMYFCARGRTFYYDSSDYFDYWGQGTLVTVSS VL: DIQMTQSPSSVSASVGDRVTITCRASQGISSWLAWYQQKPGKAPKLLIYAASSLVNGVPSRFSGSGSGTDFTLTISSLQPEDFATYFCQQADSLPRTFGQGTKLEIK | 5.22 fold over 6E7 parental antibody | 3.63 fold over 6E7 parental antibody | 5.08 fold over 6E7 parental antibody
18 | V65 (antibody, V domains shown, also called 6E7 variant V65) VH: EVQLVQSGAEVKKPGESLKISCKGSGYSFTSYWIAWVRQMPGKGLEWMGIIYPGDSDTRYSPSFQGQVTISADKSISTAYLQWSSLKASDTAMYFCARSRTFYYDSSDYFDYWGQGTLVTVSS VL: DIQMTQSPSSVSASVGDRVTITCRASQGISSWLAWYQQKPGKAPKLLIYAASSLQNGVPSRFSGSGSGTDFTLTISSLQPEDFATYFCQQADSFPRTFGQGTKLEIK | 2.75 fold over 6E7 parental antibody | 1.29 fold over 6E7 parental antibody | 2.05 fold over 6E7 parental antibody
